Measured values taken from patent US20180016318A1 (Eli Lilly, published 2018).
Starred links: 1 amine or outer side, 2 acyl side, 3 side chain; linkers in the order of their positions; H or OH if unused. Non-standard residues stand in square brackets, D forms with d. Groups on a side chain read outwards from the residue. No end group written: not given here. *: point of attachment. C20 diacid = O=C(O)CCCCCCCCCCCCCCCCCCC(=O)*; C18 diacid = O=C(O)CCCCCCCCCCCCCCCCC(=O)*; γGlu = O=C(O)[C@H](CCC(=O)[*:2])N[*:1]; NMeI = CC[C@H](C)[C@H](NC)C(=O)O; AEEA = NCCOCCOCC(=O)O

T1: human CRHR1 (corticotropin releasing hormone receptor-1) (human, UniProt P34998 24-415)
T1 sequence (looked up): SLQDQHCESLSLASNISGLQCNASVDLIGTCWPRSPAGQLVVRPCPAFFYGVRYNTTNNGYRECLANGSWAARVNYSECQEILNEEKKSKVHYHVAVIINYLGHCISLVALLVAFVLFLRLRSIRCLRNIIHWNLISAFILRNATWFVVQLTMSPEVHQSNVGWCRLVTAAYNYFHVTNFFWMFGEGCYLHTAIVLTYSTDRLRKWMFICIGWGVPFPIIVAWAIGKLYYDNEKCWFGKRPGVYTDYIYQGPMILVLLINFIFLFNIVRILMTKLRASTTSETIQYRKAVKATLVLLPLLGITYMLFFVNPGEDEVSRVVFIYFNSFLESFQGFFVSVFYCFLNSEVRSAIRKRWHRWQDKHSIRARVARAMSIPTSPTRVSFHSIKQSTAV


What follows are molecules tested against T1, human CRHR1 (corticotropin releasing …) (assay: cell-based or functional assay).

Average EC50 (nM), cell-based cAMP assay, Y79 cells with endogenous human CRHR1	Molecule
~100000 nM	[NMeI]VTSLDVPIGLLQILIEQEKQEKEKQQAK([AEEA-AEEA-γGlu-γGlu-C20 diacid])TNAEILAQV-NH2 (N-terminus assumed; SMILES CC[C@H](C)[C@H](NC)C(=O)N[C@H](C(=O)N[C@H](C(=O)N[C@@H](CO)C(=O)N[C@@H](CC(C)C)C(=O)N[C@@H](CC(=O)O)C(=O)N[C@H](C(=O)N1CCC[C@H]1C(=O)N[C@H](C(=O)NCC(=O)N[C@@H](CC(C)C)C(=O)N[C@@H](CC(C)C)C(=O)N[C@@H](CCC(N)=O)C(=O)N[C@H](C(=O)N[C@@H](CC(C)C)C(=O)N[C@H](C(=O)N[C@@H](CCC(=O)O)C(=O)N[C@@H](CCC(N)=O)C(=O)N[C@@H](CCC(=O)O)C(=O)N[C@@H](CCCCN)C(=O)N[C@@H](CCC(N)=O)C(=O)N[C@@H](CCC(=O)O)C(=O)N[C@@H](CCCCN)C(=O)N[C@@H](CCC(=O)O)C(=O)N[C@@H](CCCCN)C(=O)N[C@@H](CCC(N)=O)C(=O)N[C@@H](CCC(N)=O)C(=O)N[C@@H](C)C(=O)N[C@@H](CCCCNC(=O)COCCOCCNC(=O)COCCOCCNC(=O)CC[C@H](NC(=O)CC[C@H](NC(=O)CCCCCCCCCCCCCCCCCCC(=O)O)C(=O)O)C(=O)O)C(=O)N[C@H](C(=O)N[C@@H](CC(N)=O)C(=O)N[C@@H](C)C(=O)N[C@@H](CCC(=O)O)C(=O)N[C@H](C(=O)N[C@@H](CC(C)C)C(=O)N[C@@H](C)C(=O)N[C@@H](CCC(N)=O)C(=O)N[C@H](C(N)=O)C(C)C)[C@@H](C)CC)[C@@H](C)O)[C@@H](C)CC)[C@@H](C)CC)[C@@H](C)CC)C(C)C)[C@@H](C)O)C(C)C) [Example 7 (SEQ ID NO: 7)]
> 100000 nM	IVLSLDVPIGLLQILLEQARARAAREQATTNARILARV-NH2 (ligand) [human UCN2 (urocortin-2)]

The remaining lines, values behind:

Molecule	Average EC50 (nM), cell-based cAMP assay, Y79 cells with endogenous human CRHR1
Ac-IVLSLDVPIGLLQILLEQEKQEKEKQQAK([AEEA-AEEA-γGlu-γGlu-C20 diacid])TNAQILAQV-NH2 [Example 2 (SEQ ID NO: 2)]	> 10000 nM
[NMeI]VTSLDVPIGLLQILLEQEKQEKEKQQAK([AEEA-AEEA-γGlu-γGlu-C20 diacid])TNAEILAQV-NH2 [Example 5 (SEQ ID NO: 5)]	33900 nM
[NMeI]VLSLDVPIGLLQILLEQEKQEKEKQQAK([AEEA-AEEA-γGlu-γGlu-C20 diacid])TNAEILAQV-NH2 (N-terminus assumed; SMILES CC[C@H](C)[C@H](NC)C(=O)N[C@H](C(=O)N[C@@H](CC(C)C)C(=O)N[C@@H](CO)C(=O)N[C@@H](CC(C)C)C(=O)N[C@@H](CC(=O)O)C(=O)N[C@H](C(=O)N1CCC[C@H]1C(=O)N[C@H](C(=O)NCC(=O)N[C@@H](CC(C)C)C(=O)N[C@@H](CC(C)C)C(=O)N[C@@H](CCC(N)=O)C(=O)N[C@H](C(=O)N[C@@H](CC(C)C)C(=O)N[C@@H](CC(C)C)C(=O)N[C@@H](CCC(=O)O)C(=O)N[C@@H](CCC(N)=O)C(=O)N[C@@H](CCC(=O)O)C(=O)N[C@@H](CCCCN)C(=O)N[C@@H](CCC(N)=O)C(=O)N[C@@H](CCC(=O)O)C(=O)N[C@@H](CCCCN)C(=O)N[C@@H](CCC(=O)O)C(=O)N[C@@H](CCCCN)C(=O)N[C@@H](CCC(N)=O)C(=O)N[C@@H](CCC(N)=O)C(=O)N[C@@H](C)C(=O)N[C@@H](CCCCNC(=O)COCCOCCNC(=O)COCCOCCNC(=O)CC[C@H](NC(=O)CC[C@H](NC(=O)CCCCCCCCCCCCCCCCCCC(=O)O)C(=O)O)C(=O)O)C(=O)N[C@H](C(=O)N[C@@H](CC(N)=O)C(=O)N[C@@H](C)C(=O)N[C@@H](CCC(=O)O)C(=O)N[C@H](C(=O)N[C@@H](CC(C)C)C(=O)N[C@@H](C)C(=O)N[C@@H](CCC(N)=O)C(=O)N[C@H](C(N)=O)C(C)C)[C@@H](C)CC)[C@@H](C)O)[C@@H](C)CC)[C@@H](C)CC)C(C)C)C(C)C) [Example 6 (SEQ ID NO: 6)]	> 100000 nM
[NMeI]VLSLDVPIGLLQILLEQEKQEKEKQQAK([AEEA-AEEA-γGlu-γGlu-C18 diacid])TNAQILAQV-NH2 (N-terminus assumed; SMILES CC[C@H](C)[C@H](NC)C(=O)N[C@H](C(=O)N[C@@H](CC(C)C)C(=O)N[C@@H](CO)C(=O)N[C@@H](CC(C)C)C(=O)N[C@@H](CC(=O)O)C(=O)N[C@H](C(=O)N1CCC[C@H]1C(=O)N[C@H](C(=O)NCC(=O)N[C@@H](CC(C)C)C(=O)N[C@@H](CC(C)C)C(=O)N[C@@H](CCC(N)=O)C(=O)N[C@H](C(=O)N[C@@H](CC(C)C)C(=O)N[C@@H](CC(C)C)C(=O)N[C@@H](CCC(=O)O)C(=O)N[C@@H](CCC(N)=O)C(=O)N[C@@H](CCC(=O)O)C(=O)N[C@@H](CCCCN)C(=O)N[C@@H](CCC(N)=O)C(=O)N[C@@H](CCC(=O)O)C(=O)N[C@@H](CCCCN)C(=O)N[C@@H](CCC(=O)O)C(=O)N[C@@H](CCCCN)C(=O)N[C@@H](CCC(N)=O)C(=O)N[C@@H](CCC(N)=O)C(=O)N[C@@H](C)C(=O)N[C@@H](CCCCNC(=O)COCCOCCNC(=O)COCCOCCNC(=O)CC[C@H](NC(=O)CC[C@H](NC(=O)CCCCCCCCCCCCCCCCC(=O)O)C(=O)O)C(=O)O)C(=O)N[C@H](C(=O)N[C@@H](CC(N)=O)C(=O)N[C@@H](C)C(=O)N[C@@H](CCC(N)=O)C(=O)N[C@H](C(=O)N[C@@H](CC(C)C)C(=O)N[C@@H](C)C(=O)N[C@@H](CCC(N)=O)C(=O)N[C@H](C(N)=O)C(C)C)[C@@H](C)CC)[C@@H](C)O)[C@@H](C)CC)[C@@H](C)CC)C(C)C)C(C)C) [Example 3 (SEQ ID NO: 3)]	> 100000 nM
[NMeI]VLSLDVPIGLLQILLEQEKQEKEKQQAK([AEEA-AEEA-γGlu-γGlu-C20 diacid])TNAQILAQV-NH2 [Example 4 (SEQ ID NO: 4)]	> 100000 nM
Ac-IVLSLDVPIGLLQILLEQEKQEKEKQQAK([AEEA-AEEA-γGlu-γGlu-C18 diacid])TNAQILAQV-NH2 (SMILES CC[C@H](C)[C@H](NC(C)=O)C(=O)N[C@H](C(=O)N[C@@H](CC(C)C)C(=O)N[C@@H](CO)C(=O)N[C@@H](CC(C)C)C(=O)N[C@@H](CC(=O)O)C(=O)N[C@H](C(=O)N1CCC[C@H]1C(=O)N[C@H](C(=O)NCC(=O)N[C@@H](CC(C)C)C(=O)N[C@@H](CC(C)C)C(=O)N[C@@H](CCC(N)=O)C(=O)N[C@H](C(=O)N[C@@H](CC(C)C)C(=O)N[C@@H](CC(C)C)C(=O)N[C@@H](CCC(=O)O)C(=O)N[C@@H](CCC(N)=O)C(=O)N[C@@H](CCC(=O)O)C(=O)N[C@@H](CCCCN)C(=O)N[C@@H](CCC(N)=O)C(=O)N[C@@H](CCC(=O)O)C(=O)N[C@@H](CCCCN)C(=O)N[C@@H](CCC(=O)O)C(=O)N[C@@H](CCCCN)C(=O)N[C@@H](CCC(N)=O)C(=O)N[C@@H](CCC(N)=O)C(=O)N[C@@H](C)C(=O)N[C@@H](CCCCNC(=O)COCCOCCNC(=O)COCCOCCNC(=O)CC[C@H](NC(=O)CC[C@H](NC(=O)CCCCCCCCCCCCCCCCC(=O)O)C(=O)O)C(=O)O)C(=O)N[C@H](C(=O)N[C@@H](CC(N)=O)C(=O)N[C@@H](C)C(=O)N[C@@H](CCC(N)=O)C(=O)N[C@H](C(=O)N[C@@H](CC(C)C)C(=O)N[C@@H](C)C(=O)N[C@@H](CCC(N)=O)C(=O)N[C@H](C(N)=O)C(C)C)[C@@H](C)CC)[C@@H](C)O)[C@@H](C)CC)[C@@H](C)CC)C(C)C)C(C)C) [Example 1 (SEQ ID NO: 1)]	~10000 nM

What follows are molecules tested against human CRHR1 (corticotropin releasing hormone receptor-1) (human) (UniProt P34998) (assay: cell-based or functional assay).

Average EC50 (nM), cell-based cAMP assay, Y79 cells with endogenous human CRHR1	Molecule
7.3 nM	human UCN1 (urocortin-1) (from UniProt P55089 83-122) (ligand)
